Reference: patent US8455427B2, “Methods of modifying insulin signaling using biliverdin reductase” (University of Rochester, priority 2005, dated 2013)
Substitutions are numbered along the chain they refer to. Each block holds one molecule with its values, some of them ahead of it.

Columns and labels:
human BVR [1] = molecular target: T1, human BVR (Homo sapiens, UniProt P53004, A154S/E160D/G155D); assay: BVR kinase activity on substrates (IRS-1, IRS-1 peptides, Raytide, poly glu/tyr); format: biochemical; conditions: peptide as substrate of BVR, [γ-32P]-ATP
T1 construct: made in house
T1 sequence (P53004 1-296 A154S/G155D/E160D): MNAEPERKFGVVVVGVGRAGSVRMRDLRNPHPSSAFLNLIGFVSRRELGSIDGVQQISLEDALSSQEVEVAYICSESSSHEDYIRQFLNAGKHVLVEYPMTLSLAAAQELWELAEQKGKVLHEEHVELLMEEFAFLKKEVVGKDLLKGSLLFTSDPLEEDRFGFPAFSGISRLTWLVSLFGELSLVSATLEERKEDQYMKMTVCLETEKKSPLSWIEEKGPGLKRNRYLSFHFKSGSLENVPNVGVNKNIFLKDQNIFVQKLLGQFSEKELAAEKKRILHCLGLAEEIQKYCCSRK
Method: (§1) BVR autophosphorylation and kinase activity: To detect autophosphorylation of BVR, GST-hBVR of wild type (wt) and mutant variants were incubated in 50 mM HEPES buffer (pH 8.4) in the presence of 30 mM MnCl2 and 1 mM DTT for 2 h at 30° C. The reaction was started with the addition of 10 μM ATP labeled with 10 μCi [γ-^32P]-ATP and was stopped with the addition of Laemmli sample buffer. Samples were boiled for 3 min and applied to a 8% SDS-PAGE gels, transferred to a PVDF membrane, and then visualized by autoradiography. To measure kinase activity, GST-BVR (5 μg) was incubated in 50 μl kinase buffer containing 50 mM HEPES buffer (pH 8.4), 20 mM MgCl2, 30 mM MnCl2, 1 mM DTT and 10 μM ATP labeled with 10 μCi [γ-^32P]-ATP in the presence of 5 μg substrates: IRS-1 or Raytide or poly glu/tyr (4:1) for 2 h at 30° C. The reaction was started with the addition of ATP and terminated by adding 120 μl 10% H3PO4. 100 μl aliquots were directly transferred to P81 Whatman filters which were subsequently washed extensively in 0.75% phosphoric acid at room temperature. Finally, the filters were submerged in acetone for 5 min, dried, and retained counts were measured using a Beckman LS 6500 liquid scintillation counter (Beckman Coulter, Fullerton, Calif.).

human BVR [2] = molecular target: T1, human BVR; assay: BVR autophosphorylation; format: biochemical; conditions: pH 8.4; 20 mM Zn acetate, also with Mn+2
Method: as §1

[3] = molecular target: T2, insulin receptor tyrosine kinase (IRK) (Homo sapiens, UniProt P06213); assay: BVR phosphorylation by the insulin receptor tyrosine kinase (IRK), in vitro [32P]-ATP assay; format: biochemical; conditions: for decrease of BVR phosphorylation by IRK caused by point mutation / BVR phosphorylation by IRK (tyrosine mutants, in words): mutant vs wtBVR, IRK 2 h at 30° C.
T2 construct: the 48 kDa cytoplasmic domain of the β-subunit of IRK; purchased Biomol International (Plymouth, Pa.)
Method: BVR phosphoiylation by the insulin receptor tyrosine kinase (IRK): Phosphorylation of BVR by IRK was examined using GST-HBVR fusion protein and the 48 kDa cytoplasmic domain of the β-subunit of IRK. BVR (5 μg) was incubated in 50 μl of IRK kinase buffer containing 50 mM HEPES (pH 8.0), 20 mM MgCl2, 1 mM DTT in the presence of 0.05 μg IRK and 10 μM ATP labeled with 10 μCi [γ-^32P]-ATP. The reaction was started with the addition of labeled ATP and incubated for 2-4 h. Reactions were terminated by addition of Laemmli sample buffer and boiled for 3 min. Samples were subjected to 8% SDS-PAGE and transferred to PVDF membranes for autoradiography.

BVR in 293A cells [4] = assay: BVR reductase activity in insulin-treated 293A cells; format: cell-based, human; conditions: insulin 50 nM
Method: (§2) Cell culture and transfection and infection of 293A: 293A cells were grown in 10 cm-plates with Dulbecco's Modified Eagle Medium (DMEM) (Invitrogen, Carlsbad, Calif.) containing 10% fetal bovine serum and 1% penicillin-G/streptomycin for 24 h or until a confluency of 70% was reached. Cells were subsequently transfected with 4 μg of pcDNA3 mutant BVR Y^198 using Transfectin Lipid Reagent (Bio-Rad, Hercules, Calif.), according to the manufacturer's procedure and incubated for 48 h at 37° C. In addition, non-transfected cells were infected with pSuper-Retro-siBVR for 24 h in the presence of 4 μg/ml polybrene. Cells were starved in serum-free DMEM 16 h prior to insulin treatment (50 nM).
Measurement of BVR Reductase Activity: 293A cells treated with insulin were lysed in buffer containing a protease inhibitor cocktail and phosphatase inhibitors (10 mM NaF, […]). BVR activity was measured at pH 6.7 using NADH as the cofactor as described previously (Huang et al., J. Biol. Chem. 264:7844-9 (1989), which is hereby incorporated by reference in its entirety). The rate of conversion of biliverdin to bilirubin was determined as the increase in absorbance at 450 nm at 25° C. Specific activity is expressed as μmol of bilirubin/min/mg of protein.

BVR in 293A cells [5] = assay: BVR tyrosine phosphorylation in insulin-treated 293A cells (immunoprecipitation and immunoblotting); format: cell-based, human; conditions: within 8 min after insulin treatment
Method: as §2
Immunoprecipitation and immunoblotting: 293A Cells were plated in 10 cm plates and transfected with appropriate plasmids. Prior to collection, cells were washed twice with cold PBS and lysed in 300 μl cold modified RIPA buffer containing 50 mM Tris (pH7.4), 75 mM NaCl, 2 mM EDTA, 2 mM EGTA, 10 mM NaF, 1% Nonidet P-40, 0.5% sodium deoxycholate, 0.5% sodium vanadate, 1 mM PMSF, 10 μg/ml aprotinin, 1 mM benzamidine, 10 μg/ml leupeptine, and 10 μg/ml pepstatin. Cells sonicated (2×3 sec each) and centrifuged at 10,000×g for 15 min. Protein concentration was determined by Bradford assay (Bio-Rad, Hercules, Calif.). […]

human BVR [6] = assay: BVR kinase activity on substrates (IRS-1, IRS-1 peptides, Raytide, poly glu/tyr); format: biochemical; conditions: protein tested as kinase for IRS; Mn+2 and Mg+2 present
Method: as §1

human BVR [7] = assay: BVR autophosphorylation; format: biochemical; conditions: pH 8.4, 30 mM MnCl2, 2 h, 30° C.
Method: as §1

T2 sequence (P06213 980-1382 limits assumed): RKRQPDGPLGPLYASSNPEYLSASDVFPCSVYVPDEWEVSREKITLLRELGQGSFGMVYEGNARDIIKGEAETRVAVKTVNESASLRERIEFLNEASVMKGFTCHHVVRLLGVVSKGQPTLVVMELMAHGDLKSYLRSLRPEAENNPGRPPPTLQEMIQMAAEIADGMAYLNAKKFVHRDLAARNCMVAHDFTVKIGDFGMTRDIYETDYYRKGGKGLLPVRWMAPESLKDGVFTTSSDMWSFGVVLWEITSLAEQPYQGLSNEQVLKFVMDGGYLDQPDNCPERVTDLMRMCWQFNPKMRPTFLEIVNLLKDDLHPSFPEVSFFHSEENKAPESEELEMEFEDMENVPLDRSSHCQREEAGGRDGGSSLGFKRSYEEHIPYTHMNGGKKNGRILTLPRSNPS

phosphorylation of IRS-1 peptide by BVR (human BVR [1]): 1049±78 cpm
Molecule: Lys-Lys-His-Ala-Asp-Asp-Gly-Ala-Met-Pro-Met-Ser^312-Pro-Gly-Val-Ala (KKHADDGAMPMSPGVA; mutant peptide fragment of Homo sapiens Insulin Receptor Substrate (Peptide 1)) [mutant IRS-1 peptide (#1), reference compound]

phosphorylation of IRS-1 peptide by BVR (human BVR [1]): 1198±230 cpm
Molecule: Arg-Thr-Glu-Ser^307-Ile-Thr-Ala-Thr-Ser^312-Pro-Ala-Ser^315-Met-Val-Gly-Gly-Lys-Pro (RTESITATSPASMVGGKP; peptide fragment of Homo sapiens Insulin Receptor Substrate (Peptide 2)) [IRS-1 peptide (#2), reference compound]

effect of metal ion on BVR autophosphorylation (human BVR [2]): inhibitory to BVR autophosphorylation
Molecule: CC(=O)[O-].CC(=O)[O-].[Zn+2] [Zn^+2, Zn acetate, reference compound]

Molecule: O=c1c(-c2ccc(O)cc2)coc2cc(O)cc(O)c12 [Genestein, reference compound]
effect on BVR phosphorylation mediated by IRK ([3]; genestein 200 μM, HEPES pH 8.0, 20 mM MgCl2): significantly inhibited BVR phosphorylation mediated by IRK

Molecule: insulin: Human insulin purchased from Sigma-Aldrich
increase in BVR reductase activity (BVR in 293A cells [4]; 1 h after treatment): 2 fold
BVR reductase activity, later time (BVR in 293A cells [4]; 6 h after treatment): gradually returned to basal level
BVR tyrosine phosphorylation (BVR in 293A cells [5]): dramatic increase in phosphorylation

effect on phosphorylation of BVR by IRK ([3]; 50 mM EDTA (pH 8.0), 30° C., 2 h, anti-phosphotyrosine blot): abolished phosphorylation of BVR by IRK
Molecule: O=C(O)CN(CCN(CC(=O)O)CC(=O)O)CC(=O)O [EDTA, reference compound]

B1: HO-1: heme oxygenase isozyme, used as a control for kinase activity (protein, UniProt P09601 1-288, looked up)
Heme oxygenase 1: MERPQPDSMPQDLSEALKEATKEVHTQAENAEFMRNFQKGQVTRDGFKLVMASLYHIYVALEEEIERNKESPVFAPVYFPEELHRKAALEQDLAFWYGPRWQEVIPYTPAMQRYVKRLHEVGRTEPELLVAHAYTRYLGDLSGGQVLKKIAQKALDLPSSGEGLAFFTFPNIASATKFKQLYRSRMNSLEMTPAVRQRVIEEAKTAFLLNIQLFEELQELLTHDTKDQSPSRAPGLRQRASNKVQDSAPVETPRGKPPLNTRSQAPLLRWVLTLSFLVATVAVGLYAM
IRS phosphorylation (human BVR [6]): did not significantly effect IRS phosphorylation

decrease of BVR phosphorylation by IRK caused by point mutation [3]: 40%
B2: Y^228: human BVR point mutant, NRYLS to NRFLS (protein, UniProt P53004 3-296, looked up, variant Y228F)
Biliverdin reductase A: AEPERKFGVVVVGVGRAGSVRMRDLRNPHPSSAFLNLIGFVSRRELGSIDGVQQISLEDALSSQEVEVAYICSESSSHEDYIRQFLNAGKHVLVEYPMTLSLAAAQELWELAEQKGKVLHEEHVELLMEEFAFLKKEVVGKDLLKGSLLFTAGPLEEERFGFPAFSGISRLTWLVSLFGELSLVSATLEERKEDQYMKMTVCLETEKKSPLSWIEEKGPGLKRNRFLSFHFKSGSLENVPNVGVNKNIFLKDQNIFVQKLLGQFSEKELAAEKKRILHCLGLAEEIQKYCCSRK
autophosphorylation of BVR mutants (human BVR [7]): did not result in significant changes in autophosphorylation of BVR

B3: Y^198 plus Y^228: human BVR double mutant, DQFMK and NRFLS (protein, UniProt P53004 3-296, looked up, variant Y198F Y228F)
Biliverdin reductase A: B2 Biliverdin reductase A with Y196F
BVR phosphorylation by IRK (tyrosine mutants, in words) [3]: little or no phosphorylation was detected

B4: G^17: human BVR point mutant in ATP binding domain, GVGRA to GVARA (protein, UniProt P53004 3-296, looked up, variant G17A)
Biliverdin reductase A: B2 Biliverdin reductase A with G15A, F226Y
IRS phosphorylation (human BVR [6]): for the most part, prevented IRS phosphorylation by BVR

B5: Y^198 plus Y^291: human BVR double mutant, DQFMK and QKFCC (protein, UniProt P53004 3-296, looked up, variant Y198F Y291F)
Biliverdin reductase A: B2 Biliverdin reductase A with Y196F, F226Y, Y289F
BVR phosphorylation by IRK (tyrosine mutants, in words) [3]: little or no phosphorylation was detected

decrease of BVR phosphorylation by IRK caused by point mutation [3]: 49%
B6: Y^291: human BVR point mutant, QKYCC to QKFCC (protein, UniProt P53004 3-296, looked up, variant Y291F)
Biliverdin reductase A: B2 Biliverdin reductase A with F226Y, Y289F
autophosphorylation of BVR mutants (human BVR [7]): did not result in significant changes in autophosphorylation of BVR

B7: T^202: human BVR point mutant, KMTVC to KMAVC (protein, UniProt P53004 3-296, looked up, variant T202A)
Biliverdin reductase A: B2 Biliverdin reductase A with T200A, F226Y
autophosphorylation of BVR mutants (human BVR [7]): found to be a target of autophosphorylation

B8: HO-2: heme oxygenase isozyme, used as a control for kinase activity (protein, UniProt P30519 2-316, looked up)
Heme oxygenase 2: SAEVETSEGVDESEKKNSGALEKENQMRMADLSELLKEGTKEAHDRAENTQFVKDFLKGNIKKELFKLATTALYFTYSALEEEMERNKDHPAFAPLYFPMELHRKEALTKDMEYFFGENWEEQVQCPKAAQKYVERIHYIGQNEPELLVAHAYTRYMGDLSGGQVLKKVAQRALKLPSTGEGTQFYLFENVDNAQQFKQLYRARMNALDLNMKTKERIVEEANKAFEYNMQIFNELDQAGSTLARETLEDGFPVHDGKGDMRKCPFYAAEQDKGALEGSSCPFRTAMAVLRKPSLQFILAAGVALAAGLLAWYYM
IRS phosphorylation (human BVR [6]): did not significantly effect IRS phosphorylation
